Square brackets hold non-standard residues; d marks the D form. Ends that are not written are not given here. Peptide text beside a SMILES is read from it. Ahx = NCCCCCC(=O)O
B1: GIP(1-14)(Ahx)2(19-30)NH2 (peptide, UniProt P09681 52-65, looked up)
peptide: YAEGTFISDYSIAM[Ahx][Ahx]QQDFVNWLLAQK-NH2
modifications: N-terminus assumed
SMILES: CC[C@H](C)[C@H](NC(=O)[C@H](CO)NC(=O)[C@H](Cc1ccc(O)cc1)NC(=O)[C@H](CC(=O)O)NC(=O)[C@H](CO)NC(=O)[C@@H](NC(=O)[C@H](Cc1ccccc1)NC(=O)[C@@H](NC(=O)CNC(=O)[C@H](CCC(=O)O)NC(=O)[C@H](C)NC(=O)[C@@H](N)Cc1ccc(O)cc1)[C@@H](C)O)[C@@H](C)CC)C(=O)N[C@@H](C)C(=O)N[C@@H](CCSC)C(=O)NCCCCCC(=O)NCCCCCC(=O)N[C@@H](CCC(N)=O)C(=O)N[C@@H](CCC(N)=O)C(=O)N[C@@H](CC(=O)O)C(=O)N[C@@H](Cc1ccccc1)C(=O)N[C@H](C(=O)N[C@@H](CC(N)=O)C(=O)N[C@@H](Cc1c[nH]c2ccccc12)C(=O)N[C@@H](CC(C)C)C(=O)N[C@@H](CC(C)C)C(=O)N[C@@H](C)C(=O)N[C@@H](CCC(N)=O)C(=O)N[C@@H](CCCCN)C(N)=O)C(C)C
notes: range 52-65
B2: GIP(1-14)(Ahx)1(19-30)NH2 (peptide, UniProt P09681 52-65, looked up)
peptide: YAEGTFISDYSIAM[Ahx]QQDFVNWLLAQK-NH2
modifications: N-terminus assumed
SMILES: CC[C@H](C)[C@H](NC(=O)[C@H](CO)NC(=O)[C@H](Cc1ccc(O)cc1)NC(=O)[C@H](CC(=O)O)NC(=O)[C@H](CO)NC(=O)[C@@H](NC(=O)[C@H](Cc1ccccc1)NC(=O)[C@@H](NC(=O)CNC(=O)[C@H](CCC(=O)O)NC(=O)[C@H](C)NC(=O)[C@@H](N)Cc1ccc(O)cc1)[C@@H](C)O)[C@@H](C)CC)C(=O)N[C@@H](C)C(=O)N[C@@H](CCSC)C(=O)NCCCCCC(=O)N[C@@H](CCC(N)=O)C(=O)N[C@@H](CCC(N)=O)C(=O)N[C@@H](CC(=O)O)C(=O)N[C@@H](Cc1ccccc1)C(=O)N[C@H](C(=O)N[C@@H](CC(N)=O)C(=O)N[C@@H](Cc1c[nH]c2ccccc12)C(=O)N[C@@H](CC(C)C)C(=O)N[C@@H](CC(C)C)C(=O)N[C@@H](C)C(=O)N[C@@H](CCC(N)=O)C(=O)N[C@@H](CCCCN)C(N)=O)C(C)C
notes: range 52-65
B3: GIP(1-14)(Ahx)3(19-30)NH2 (peptide, UniProt P09681 52-65, looked up)
peptide: YAEGTFISDYSIAM[Ahx][Ahx][Ahx]QQDFVNWLLAQK-NH2
modifications: N-terminus assumed
SMILES: CC[C@H](C)[C@H](NC(=O)[C@H](CO)NC(=O)[C@H](Cc1ccc(O)cc1)NC(=O)[C@H](CC(=O)O)NC(=O)[C@H](CO)NC(=O)[C@@H](NC(=O)[C@H](Cc1ccccc1)NC(=O)[C@@H](NC(=O)CNC(=O)[C@H](CCC(=O)O)NC(=O)[C@H](C)NC(=O)[C@@H](N)Cc1ccc(O)cc1)[C@@H](C)O)[C@@H](C)CC)C(=O)N[C@@H](C)C(=O)N[C@@H](CCSC)C(=O)NCCCCCC(=O)NCCCCCC(=O)NCCCCCC(=O)N[C@@H](CCC(N)=O)C(=O)N[C@@H](CCC(N)=O)C(=O)N[C@@H](CC(=O)O)C(=O)N[C@@H](Cc1ccccc1)C(=O)N[C@H](C(=O)N[C@@H](CC(N)=O)C(=O)N[C@@H](Cc1c[nH]c2ccccc12)C(=O)N[C@@H](CC(C)C)C(=O)N[C@@H](CC(C)C)C(=O)N[C@@H](C)C(=O)N[C@@H](CCC(N)=O)C(=O)N[C@@H](CCCCN)C(N)=O)C(C)C
notes: range 52-65; also called GlP(1-14)(Ahx)3(19-30)NH2

These molecules were tested against T1, rat pancreatic islet (wild type) GIP-receptor stably expressed on CHO-K1 cells (rat, UniProt P43219 19-455) (assay: cell-based or functional assay). Settings: not given.
T1 sequence (looked up): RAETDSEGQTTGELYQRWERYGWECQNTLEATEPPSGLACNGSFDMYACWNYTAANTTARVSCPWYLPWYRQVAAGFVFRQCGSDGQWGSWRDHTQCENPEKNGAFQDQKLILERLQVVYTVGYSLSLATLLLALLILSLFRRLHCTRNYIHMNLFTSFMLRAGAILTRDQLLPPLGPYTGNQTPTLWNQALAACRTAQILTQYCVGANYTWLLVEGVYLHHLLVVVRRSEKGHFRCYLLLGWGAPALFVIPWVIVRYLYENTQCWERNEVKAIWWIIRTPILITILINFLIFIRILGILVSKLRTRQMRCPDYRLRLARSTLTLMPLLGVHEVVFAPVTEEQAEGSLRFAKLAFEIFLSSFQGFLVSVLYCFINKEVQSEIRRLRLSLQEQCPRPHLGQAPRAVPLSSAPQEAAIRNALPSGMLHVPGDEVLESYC
In the case of B1, the “Max. cAMP (Fold Basal)” value is reported as 95.9 fold basal and the “cAMP Production EC50” value is reported as 2.51 µM. For B2, the “Max. cAMP (Fold Basal)” value was 102 fold basal and the “cAMP Production EC50” value was 1.41 µM. With B3 the “Max. cAMP (Fold Basal)” value was 49.5 fold basal and the “cAMP Production EC50” value was about 20 µM.

The molecules below were run against T2, DPIV (dipeptidyl peptidase IV) (Sus scrofa, UniProt P22411) (assay: Determination of DPIV resistance by MALDI-TOF mass spectrometry). Settings: purified kidney DPIV, 0.04 M Tris buffer pH 7.6, up to 24 h, MALDI-TOF MS; read-out: half life after incubation with DP IV.
T2 construct: The hydrolysis of peptide analogues by purified kidney DPIV was studied as described previously [12]; from tissue; host or cells: kidney
T2 sequence (P22411 whole entry): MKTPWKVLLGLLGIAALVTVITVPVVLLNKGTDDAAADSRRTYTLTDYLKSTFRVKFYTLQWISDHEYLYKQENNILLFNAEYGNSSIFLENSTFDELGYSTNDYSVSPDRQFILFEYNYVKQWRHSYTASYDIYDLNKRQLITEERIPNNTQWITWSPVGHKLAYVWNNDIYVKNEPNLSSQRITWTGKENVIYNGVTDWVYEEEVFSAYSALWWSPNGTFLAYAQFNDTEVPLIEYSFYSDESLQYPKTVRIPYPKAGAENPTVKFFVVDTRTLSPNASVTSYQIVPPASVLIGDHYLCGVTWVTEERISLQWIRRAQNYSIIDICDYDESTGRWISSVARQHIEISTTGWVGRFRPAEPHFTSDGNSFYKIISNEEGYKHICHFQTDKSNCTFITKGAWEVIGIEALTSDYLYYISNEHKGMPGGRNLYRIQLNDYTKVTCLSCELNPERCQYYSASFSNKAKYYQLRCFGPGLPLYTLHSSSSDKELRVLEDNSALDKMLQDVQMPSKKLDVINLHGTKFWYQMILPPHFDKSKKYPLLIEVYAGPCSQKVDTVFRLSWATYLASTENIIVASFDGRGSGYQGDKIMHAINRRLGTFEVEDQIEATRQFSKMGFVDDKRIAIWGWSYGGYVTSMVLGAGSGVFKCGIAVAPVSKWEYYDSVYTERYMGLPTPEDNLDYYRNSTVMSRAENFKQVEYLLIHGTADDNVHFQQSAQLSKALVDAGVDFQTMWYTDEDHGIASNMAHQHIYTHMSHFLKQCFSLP
Type: in vitro ADME
Protocol: (§1) The hydrolysis of peptide analogues by purified kidney DPIV was studied as described previously. […] Samples were removed from the incubation mixture and prepared for MALDI-TOF mass spectrometry, as described in Pauly, […]., Pederson, R. A., and Demuth, H. U.
In the case of YPEGTF-NH2 [Pro^2-GIP1-6a], the half-life is reported as over 7.5 min. Work on `CC[C@H](C)[C@H](NC(=O)[C@H](CO)NC(=O)[C@H](Cc1ccc(O)cc1)NC(=O)[C@H](CC(=O)O)NC(=O)[C@H](CO)NC(=O)[C@@H](NC(=O)[C@H](Cc1ccccc1)NC(=O)[C@@H](NC(=O)CNC(=O)[C@@H](CCC(=O)O)NC(=O)[C@H](C)NC(=O)[C@@H](N)Cc1ccc(O)cc1)[C@@H](C)O)[C@@H](C)CC)C(=O)N[C@@H](C)C(=O)N[C@@H](CCSC)C(=O)N[C@@H](CC(=O)O)C(=O)N[C@@H](CCCCN)C(=O)N[C@H](C(=O)N[C@@H](CCCNC(=N)N)C(=O)N[C@@H](CCC(N)=O)C(=O)N[C@@H](CCC(N)=O)C(=O)N[C@@H](CC(=O)O)C(=O)N[C@@H](Cc1ccccc1)C(=O)N[C@H](C(=O)N[C@@H](CC(N)=O)C(=O)N[C@@H](Cc1c[nH]c2ccccc12)C(=O)N[C@@H](CC(C)C)C(=O)N[C@@H](CC(C)C)C(=O)N[C@@H](C)C(=O)N[C@@H](CCC(N)=O)C(=O)N[C@@H](CCCCN)C(N)=O)C(C)C)[C@@H](C)CC` [D-Glu^3-GIP1-30] (H-YA[dE]GTFISDYSIAMDKIRQQDFVNWLLAQK-NH2; N-terminus and C-terminus assumed) yielded a half-life of 40.3 ± 4.8 min. Molecule “YVEGTFISDYSIAMDKIRQQDFVNWLLAQK-NH2 [Val^2-GIP1-30a]” has a half-life of 298 ± 92.2 min.

What follows are molecules tested against T3, purified kidney DPIV (Sus scrofa, UniProt P22411) in the same assay as above. Settings: pH 7.6.
T3 construct: The hydrolysis of peptide analogues by purified kidney DPIV was studied as described previously [12]; from tissue; host or cells: kidney
T3 sequence (P22411 whole entry): as the sequence (P22411 whole entry) above
Type: in vitro ADME
Protocol: as §1
With “Tyr-Ala-ψ(CH2NH)-Glu-Gly-Thr-Phe-Ile-Ser-Asp-Tyr-Ser-Ile-Ala-Met-Asp-Lys-Ile-His-Gln-Gln-Asp-Phe-Val-Asn-Trp-Leu-Leu-Ala-Gln-Lys [YAψ(CH2NH)-GIP3-30a]” the “half life after incubation with DP IV” value was “stable”. “Tyr-Ala-Ψ(CH2NH2)-Glu-Gly-Thr-Phe-Ile-Ser-Asp-Tyr-Ser-Ile-Ala-Met (EGTFISDYSIAM; not fully specified; N-terminal Tyr-Ala reduced bond, C-amide; printed: Glu-Gly-Thr-Phe-Ile-Ser-Asp-Tyr-Ser-Ile-Ala-Met) [YAψ(CH2NH)-GIP3-14a, GIP1-14 analogue with a reduced peptide bond]” was tested, and the “half life after incubation with DP IV” value was “stable”. In the case of “D-Ala^2-GIP1-30a: GIP1-30 analog, N-terminal sequence Tyr-D-Ala-Glu-Gly (Y[dA]EGTFISDYSIAMDKIRQQDFVNWLLAQK-NH2)”, the “half life after incubation with DP IV” value is reported as “stable”.

Same assay, conditions: purified kidney DPIV, 0.04 M Tris buffer pH 7.6, up to 24 h, MALDI-TOF MS
With YGEGTF-NH2 [Gly^2-GIP1-6a] the “half life after incubation with DP IV” value was “Not detectable^b”. For `CC[C@H](C)[C@H](NC(=O)[C@H](CO)NC(=O)[C@H](Cc1ccc(O)cc1)NC(=O)[C@H](CC(=O)O)NC(=O)[C@H](CO)NC(=O)[C@@H](NC(=O)[C@H](Cc1ccccc1)NC(=O)[C@@H](NC(=O)CNC(=O)[C@H](CCC(=O)O)NC(=O)[C@@H](C)NC(=O)[C@@H](N)Cc1ccc(O)cc1)[C@@H](C)O)[C@@H](C)CC)C(=O)N[C@@H](C)C(=O)N[C@@H](CCSC)C(=O)O` [D-Ala^2-GIP1-14], the “half life after incubation with DP IV” value was “stable”. With YAPGTFISDYSIAM [Pro^3-GIP1-14] the “half life after incubation with DP IV” value was “stable”. For YVEGTF-NH2 [Val^2-GIP1-6a], the “half life after incubation with DP IV” value was “Not detectable”. For YAPGTF-NH2 [Pro3-GIP1-6a], the “half life after incubation with DP IV” value was “stable”. `C[C@@H](NC(=O)[C@@H](N)Cc1ccc(O)cc1)C(=O)N[C@@H](CCC(=O)O)C(=O)NCC(=O)N[C@H](C(=O)N[C@@H](Cc1ccccc1)C(N)=O)[C@@H](C)O` [D-Ala^2-GIP1-6a] (H-Y[dA]EGTF-NH2) was tested, and the “half life after incubation with DP IV” value was “stable”.

Same assay, conditions: purified kidney DPIV, 0.04 M Tris buffer pH 7.6, up to 24 h, MALDI-TOF MS; read-out: half life after incubation with DP IV
`CC[C@H](C)[C@H](NC(=O)[C@H](CO)NC(=O)[C@H](Cc1ccc(O)cc1)NC(=O)[C@H](CC(=O)O)NC(=O)[C@H](CO)NC(=O)[C@@H](NC(=O)[C@H](Cc1ccccc1)NC(=O)[C@@H](NC(=O)CNC(=O)[C@H](CCC(=O)O)NC(=O)[C@H](C)NC(=O)[C@@H](N)Cc1ccc(O)cc1)[C@@H](C)O)[C@@H](C)CC)C(=O)N[C@@H](C)C(=O)N[C@@H](CCSC)C(=O)N[C@@H](CC(=O)O)C(=O)O` [GIP1-15] showed a half-life of 35 ± 5.2 min. With YSEGTF-NH2 [Ser^2-GIP1-6a] the half-life was 79 ± 12.2 min. Work on `CC[C@H](C)[C@H](NC(=O)[C@H](CO)NC(=O)[C@H](Cc1ccc(O)cc1)NC(=O)[C@H](CC(=O)O)NC(=O)[C@H](CO)NC(=O)[C@@H](NC(=O)[C@H](Cc1ccccc1)NC(=O)[C@@H](NC(=O)CNC(=O)[C@H](CCC(=O)O)NC(=O)[C@H](C)NC(=O)[C@@H](N)Cc1ccc(O)cc1)[C@@H](C)O)[C@@H](C)CC)C(=O)N[C@@H](C)C(=O)O` [GIP1-13] yielded a half-life of 11.5 ± 2.5 min.

Each molecule was assayed against T1, rat pancreatic islet (wild type) … (assay: competition with 125I-GIP on CHO-K1 cells transfected with rat GIP receptor). Settings: not given.
Protocol: (§2) Cells were cultured in DMEM/F12, supplemented with 10% newborn calf serum, 50 units/ml penicillin G, and 50 μg/ml streptomycin (Culture media and antibiotics from Gibco BRL, Life Technologies). Cells were grown in 75 cm² flasks until 80-90% confluent, when they were split and seeded onto 24 well plates at a density of 50,000 cells/well. Experiments were carried out 48 h later.
(§3) Binding studies using ¹²⁵I-labeled spGIP₁₋₄₂, purified by high performance liquid chromatography (HPLC), were performed essentially as described previously-[21]. wtGIP-R1 Cells (1-5×10⁵/well) were washed twice at 4° C. in binding buffer (BB), consisting of DMEM/F12 (GIBCO), 15 mM HEPES, 0.1% bovine serum albumin (BSA), 1% Trasylol (aprotinin; Bayer), pH 7.4. They were incubated for 12-16 h at 4° C. with ¹²⁵I-spGIP (50,000 cpm) in the presence or absence of unlabeled GIP₁₋₄₂ or analogue. Following incubation, cells were washed twice with ice cold buffer, solubilized with 0.1 M NaOH (1 ml), and transferred to culture tubes for counting of cell-associated radioactivity. Nonspecific binding was defined as that measured in the presence of 1 μM GIP₁₋₄₂ or GIP₁₋₃₀, and specific binding expressed as % of binding in the absence of competitor (% B/Bo).
For B1, the IC50 was 2.77 µM. Work on B2 yielded an IC50 of 2.71 µM. B3 was tested, and the IC50 was 3.21 µM.

What follows are molecules tested against T1, rat pancreatic islet (wild type) … (assay: displacement of 125I-GIP from CHO-K1 cells transfected with rat GIP receptor, 20 µM peptide). Settings: not given.
Protocol: as §2, §3
B1 was tested, and the “% Displacement at 20 µM” value was 85.8%. In the case of B2, the “% Displacement at 20 µM” value is reported as 86.1%. For B3, the “% Displacement at 20 µM” value was 82.7%.

Source: patent US20050137135A1 (priority 2002, published 2005)
